The values that follow come from PMC5856381, “Phenotype-specific recombinant haptoglobin polymers co-expressed with C1r-like protein as optimized hemoglobin-binding therapeutics” (BMC Biotechnology, 2018).

The test has as its target T1, cleavage-site mutated recombinant haptoglobin Hp1S (Q101A, R102A), uncleaved proHp (human).
T1 chain: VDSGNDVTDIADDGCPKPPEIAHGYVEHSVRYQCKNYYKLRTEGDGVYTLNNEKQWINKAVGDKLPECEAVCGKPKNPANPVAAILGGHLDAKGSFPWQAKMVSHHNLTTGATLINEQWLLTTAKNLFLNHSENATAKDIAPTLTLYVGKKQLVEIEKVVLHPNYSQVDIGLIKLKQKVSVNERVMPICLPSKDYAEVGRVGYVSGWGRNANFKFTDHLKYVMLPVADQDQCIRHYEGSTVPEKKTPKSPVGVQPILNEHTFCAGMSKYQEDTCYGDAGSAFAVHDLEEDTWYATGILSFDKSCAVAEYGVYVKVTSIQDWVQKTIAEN
Nature of the test: non-reducing SDS-PAGE; Coomassie-stained gel of non-reduced protein samples; disulfide-linked dimers and multimers.

B1: cleavage-site mutated recombinant haptoglobin Hp1S (Q101A, R102A), uncleaved proHp (natural protein)
chain: VDSGNDVTDIADDGCPKPPEIAHGYVEHSVRYQCKNYYKLRTEGDGVYTLNNEKQWINKAVGDKLPECEAVCGKPKNPANPVAAILGGHLDAKGSFPWQAKMVSHHNLTTGATLINEQWLLTTAKNLFLNHSENATAKDIAPTLTLYVGKKQLVEIEKVVLHPNYSQVDIGLIKLKQKVSVNERVMPICLPSKDYAEVGRVGYVSGWGRNANFKFTDHLKYVMLPVADQDQCIRHYEGSTVPEKKTPKSPVGVQPILNEHTFCAGMSKYQEDTCYGDAGSAFAVHDLEEDTWYATGILSFDKSCAVAEYGVYVKVTSIQDWVQKTIAEN
modifications: Uncleaved single-chain proHp1S with signal peptide removed; paper's Q101/R102 (precursor Hp1 numbering) = Q160/R161 of P00738; disulfide-linked dimer; N-glycosylated; C-terminal 8xHis tag omitted / …
As to B1, the stoichiometry N (commonly a count of units in the complex or per binding partner) worked out at 2.
